The values that follow come from a protein production outcome set (Wang et al. 2014).

The series is described as follows: label from the status in PepcDB records.

For the sequence “KRITRPGNTDDPSGGNKVLLLSIQNPLYPITVDVLYTVCNPVGKVQRIVIFKRNGIQAMVEFESVLCAQKAKAALNGADIYAGCCTLKIEYARPTRLNVIRNDNDSWDYTKPYLGRR”, the protein production result is listed as “not failed”. To “KRQKIHLGDRSQKCSKCGIIFIRRSTLSRRKTPMCEKCRKDSCQEAALNKDEGNESGKKT” belongs “not failed”; to “KTPADNIETADLSASVPTRPAEPERKTLADYGGYPSALDAVKQKNDAAVAAYLENAGDSAMAENVRNEWLKSLGARRQWTLFAQEYAKLEPAGRAQEVECYADSSRNDYTRAAELVKNTGKLPSGCTKLLEQAAASGLLDGNDAWRRVRGLLAGRQTTDARNLAAALGSPFDGGTQGSREYALLNVIGKEARKSPNAAALLSEMESGLSLEQRSFAWGVLGHYQSQNLNVPAALDYYGKVADRRQLTDDQIEWYARAALRARRWDELASVISHMPEKLQKSPTWLYWLARSRAATGNTQEAEKLYKQAAATGRNFYAVLAGEELGRKIDTRNNVPDAGKNSVRRMAEDGAVKRALVLFQNSQSAGDAKMRRQAQAEWRFATRGFDEDKLLTAAQTAFDHGFYDMAVNSAERTDRKLNYTLRYISPFKDTVIRHAQNVNVDPAWVYGLIRQESRFVIGAQSRVGAQGLMQVMPATAREIAGKIGMDAAQLYTADGNIRMGTWYMADTKRRLQNNEVLATAGYNAGPGRARRWQADTPLEGAVYAETIPFSETRDYVKK”, “failed”; to “KVGVLVAAHGMSTASSMAQVVGQLLDDYDVQAFDMPLDMDPSVAYDHVKRRVEKLDSGKGILLLVDMGSLTTFGERIQQETGIATRTIDMVTTPVVLEAVRKASLVDSDLDSMYQELVGFKGYSRISRNLPTDSQ”, “failed”. Then “KVIIAIDAGHGGQDPGAIGPNGTKEKNVTIAIARKLRALLNADPQFKPVLTRDGDYFISVMGRSEVARKQNANFLVSIHADAAPNRDATGASVWVLSNRRANSEMAGWLEQHEKQSELLGGAGDVLANSQADPYLSQAVLDLQFGHSQRVGYDVATNVLSQLQRIGNLHKRRPEHASLGVLRSPDIPSILVETGFISNNGEERLLGSDDYQEQIAEAIYNGLRNYFMQHPLQSAPRGEAAQTASAAAPGGMLIN”, with “failed”; and “KVVLYARVSSKQKDELVNQVKYLEEQVKEYDLVITDIGSGLNMKRKGFLKLLRMILNNEVSRVVIAYPDRLVRFGFEILEETCKAHGCEIVVLNQEEKEEELVEDLISVLVSFSEKLHGMRSHEYEKVKKCAEELKN”, with “failed”.

As to “KYANGTFFTYRPEAWDWMYTVAEEFDTIVAGLFGLITGGLLSVDSIAGEFENGTISRLYSLPINRWEIYFGKVIEKI”, the protein production result is “failed”. Then “KYNPVVNPERALERRNWILGRMLQLGYINQTQYQQAVAEPINLDMPDRGVSNRYPYIGEMVRAELVEKFGEQAVDSGY”, with “failed”. Consider “KYPFLREAGSSFKDRDVTKMSDLIATWDGQDIKGPALIGVPLSKSSISHSGASFAPGTIRQALKHSSAYSAELGEHVVSELLYDLGDIDIHVTDIVKSHHHIFQTMHALLSDHPDWVPLILGGDNSISYSTIKAIAQTKGTTAVIQFDAHHDVRNTEDGGPTNGTPFRRLLDEEIIEGQHLIQLGIREFSNSQAYEAYAKKHNVNIHTMDMIREKGLIPTIKEILPVVQDKTDFIFISVDMDVLDQSHAPGCPAIGPGGLYTDELLEAVKYIAQQPNVAGIEIVEVDPTLDFRDMTSRAAAHVLLHALK”, for which the protein production result is “failed”. Then “LAELFEKAAAHLQGLIQVASREQLLYLYARYKQVKVGNCNTPKPSFFDFEGKQKWEAWKALGDSSPSQAMQEYIAVVKKLDPGWNPQIPEKKGKEA”, with “not failed”; and “LDKMSKKTRQAIRTSKNKGVDIQFGSHELLEDFAELMKKTEDRKGINLRGIDYYQKLLDTYPNNSYITMASLDVAKRLEKIEKECQIAQSERIKSLELNREKKVKQHQGTIDRLNKEIDFLKEAQKAYDRDIIPLAATLTLEFGNTSENIYAGMDDYFKSYSAPIYTWFETAQRAFERGNIWQNMGGIENDLSGGLYHFKSKFEPII”, with “failed”; and “LDQILRATVEEVRAFLGTDRVKVYRFDPEGHGTVVAEARGGERLPSLLGLTFPAGDIPEEARRLFRLAQVRVIVDVEAQSRSISQPESWGLSARVPLGEPLQRPVDPCHVHYLKSMGVASSLVVPLMHHQELWGLLVSHHAEPRPYSQEELQVVQLLADQVSIAIAQAELSL”, with “not failed”.
